*1 amine or outer side, *2 acyl side, *3 side chain or, on linkers, in order; H or OH if unused. Where no end group is shown, it is not given here. Side-chain parts run from the residue outwards. [ ]: non-standard residue; d: D form. The star is where a group is joined. γGlu = O=C(O)[C@H](CCC(=O)[*:2])N[*:1]; Palmitoyl = CCCCCCCCCCCCCCCC(=O)*
Columns and labels:
human GLP-1 receptor = human GLP-1 receptor (human, UniProt P43220 24-463); experiment: cell-based or functional assay
human glucagon receptor = human glucagon receptor (human, UniProt P47871 26-477); experiment: cell-based or functional assay
Sequence of human glucagon receptor (P47871 26-477): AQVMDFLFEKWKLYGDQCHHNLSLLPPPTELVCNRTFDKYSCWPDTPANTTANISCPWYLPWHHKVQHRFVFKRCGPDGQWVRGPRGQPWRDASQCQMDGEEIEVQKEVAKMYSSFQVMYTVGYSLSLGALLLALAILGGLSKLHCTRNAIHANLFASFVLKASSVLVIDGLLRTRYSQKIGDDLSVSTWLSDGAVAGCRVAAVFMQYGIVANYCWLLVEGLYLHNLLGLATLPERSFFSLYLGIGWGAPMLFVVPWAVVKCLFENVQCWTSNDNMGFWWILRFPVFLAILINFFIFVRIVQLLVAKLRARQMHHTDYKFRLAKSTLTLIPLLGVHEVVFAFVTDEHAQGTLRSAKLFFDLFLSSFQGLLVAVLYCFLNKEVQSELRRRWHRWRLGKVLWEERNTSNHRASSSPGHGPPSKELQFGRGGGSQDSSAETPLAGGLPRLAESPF

Binder	EC50 hGLP-1R (cAMP formation) (human GLP-1 receptor)	EC50 hGlucagonR (cAMP formation) (human glucagon receptor)
H[dS]QGTFTSDLSKQMEEEAAQDFIEWLKAGGPSSGAPPPSK([γGlu-Palmitoyl])-NH2 (N-terminus assumed; SMILES CCCCCCCCCCCCCCCC(=O)N[C@@H](CCC(=O)NCCCC[C@H](NC(=O)[C@H](CO)NC(=O)[C@@H]1CCCN1C(=O)[C@@H]1CCCN1C(=O)[C@@H]1CCCN1C(=O)[C@H](C)NC(=O)CNC(=O)[C@H](CO)NC(=O)[C@H](CO)NC(=O)[C@@H]1CCCN1C(=O)CNC(=O)CNC(=O)[C@H](C)NC(=O)[C@H](CCCCN)NC(=O)[C@H](CC(C)C)NC(=O)[C@H](Cc1c[nH]c2ccccc12)NC(=O)[C@H](CCC(=O)O)NC(=O)[C@@H](NC(=O)[C@H](Cc1ccccc1)NC(=O)[C@H](CC(=O)O)NC(=O)[C@H](CCC(N)=O)NC(=O)[C@H](C)NC(=O)[C@H](C)NC(=O)[C@H](CCC(=O)O)NC(=O)[C@H](CCC(=O)O)NC(=O)[C@H](CCC(=O)O)NC(=O)[C@H](CCSC)NC(=O)[C@H](CCC(N)=O)NC(=O)[C@H](CCCCN)NC(=O)[C@H](CO)NC(=O)[C@H](CC(C)C)NC(=O)[C@H](CC(=O)O)NC(=O)[C@H](CO)NC(=O)[C@@H](NC(=O)[C@H](Cc1ccccc1)NC(=O)[C@@H](NC(=O)CNC(=O)[C@H](CCC(N)=O)NC(=O)[C@@H](CO)NC(=O)[C@@H](N)Cc1c[nH]cn1)[C@@H](C)O)[C@@H](C)O)[C@@H](C)CC)C(N)=O)C(=O)O) [SEQ ID NO: (108)]	2.1 pM	541 pM
H[dS]QGTFTSDLSKQMESEAAQDFIEWLKAGGPSSGAPPPSK([γGlu-Palmitoyl])-NH2 (N-terminus assumed; SMILES CCCCCCCCCCCCCCCC(=O)N[C@@H](CCC(=O)NCCCC[C@H](NC(=O)[C@H](CO)NC(=O)[C@@H]1CCCN1C(=O)[C@@H]1CCCN1C(=O)[C@@H]1CCCN1C(=O)[C@H](C)NC(=O)CNC(=O)[C@H](CO)NC(=O)[C@H](CO)NC(=O)[C@@H]1CCCN1C(=O)CNC(=O)CNC(=O)[C@H](C)NC(=O)[C@H](CCCCN)NC(=O)[C@H](CC(C)C)NC(=O)[C@H](Cc1c[nH]c2ccccc12)NC(=O)[C@H](CCC(=O)O)NC(=O)[C@@H](NC(=O)[C@H](Cc1ccccc1)NC(=O)[C@H](CC(=O)O)NC(=O)[C@H](CCC(N)=O)NC(=O)[C@H](C)NC(=O)[C@H](C)NC(=O)[C@H](CCC(=O)O)NC(=O)[C@H](CO)NC(=O)[C@H](CCC(=O)O)NC(=O)[C@H](CCSC)NC(=O)[C@H](CCC(N)=O)NC(=O)[C@H](CCCCN)NC(=O)[C@H](CO)NC(=O)[C@H](CC(C)C)NC(=O)[C@H](CC(=O)O)NC(=O)[C@H](CO)NC(=O)[C@@H](NC(=O)[C@H](Cc1ccccc1)NC(=O)[C@@H](NC(=O)CNC(=O)[C@H](CCC(N)=O)NC(=O)[C@@H](CO)NC(=O)[C@@H](N)Cc1c[nH]cn1)[C@@H](C)O)[C@@H](C)O)[C@@H](C)CC)C(N)=O)C(=O)O) [SEQ ID NO: (109)]	3.3 pM	277 pM
